{
  "source": "patent US20070213263A1",
  "about": "“Methods And Compositions Using Adiponectin For Treatment Of Cardiac Disorders And For Stimulation Of Angiogenesis” (The Trustees of Boston University, priority 2003, published 2007)",
  "key": {"[1]": {"system": "rat cardiac myocytes", "experiment": "Agonist-stimulated hypertrophy of cultured neonatal rat ventricular myocytes", "format": "cell-based", "experimental": "[^3H] leucine incorporation was determined as previously described 74.\nFor histological analysis, the mice were sacrificed and LV tissue was obtained at 7 days after TAC. Tissue was embedded in OCT compound (Miles, Elkhart, Ind.) and snap-frozen in liquid nitrogen. Tissue slices (5 μm in thickness) were prepared. Tissue sections were stained with hematoxylin and eosin or with Masson trichrome. The myocyte cross sectional area was calculated by measuring 200 cells per section. To determine sarcomeric F-actin organization, cultured myocytes were stained with FITC-conjugated phalloidin (Sigma, St. Louis, Mo.)."}, "[2]": {"system": "HUVECs", "experiment": "Migration assay (modified Boyden chamber)", "format": "cell-based, human", "details": "adiponectin 30 μg/ml, VEGF 20 ng/ml, 4 h", "procedure": "Migration activity was measured using a modified Boyden chamber assay. Serum-starved cells were trypsinized and resuspended in EGM-2 with 0.5% FBS. Cell suspension (250 μl, 2.0×10^4 cells/well) were added to the transwell fibronectin-coated insert (6.4 mm diameter, 3.0 μm pore size, Becton Dickinson, Franklin Lakes, N.J.). Then 750 μl of EGM-2 with 0.5% FBS supplemented with adiponectin (30 μg/ml), VEGF (20 ng/ml) or bovine serum albumin (BSA) (30 μg/ml) were added to lower chamber and incubated for 4 h. Migrated cells on the lower surface of the membrane were fixed, stained with Giemsa stain solution and eight random microscopic fields per well were quantified. All assays were performed in triplicate."}, "[3]": {"system": "HUVECs", "experiment": "Tube formation assay, HUVECs on Matrigel", "format": "cell-based, human", "details": "adiponectin 30 μg/ml, VEGF 20 ng/ml, 18 h", "procedure": "The formation of vascular-like structures by HUVECs on growth factor-reduced Matrigel (Becton Dickinson) was performed as previously described^28. Twenty-four-well culture plates were coated with Matrigel according to the manufacturer's instructions. […] The degree of tube formation was quantified by measuring the length of tubes in 3 randomly chosen fields from each well using the angiogenic activity quantification program (Kurabo, Osaka, Japan). […]"}, "[4]": {"system": "cornea neovascularization", "experiment": "Rabbit corneal angiogenesis assay", "format": "in vivo, New Zealand white rabbits", "details": "day 7", "experimental": "Rabbit corneal assay was performed with minor modification as previously described^33. Male New Zealand white rabbits weighing 3.0-3.9 kg were used. Two pockets, about 2×3 mm size and 5 mm apart, were surgically prepared in the cornea extending toward a point 2 mm from the limbus. Hydron pellets, which contain indicated amount of adiponectin, VEGF (100 ng) or PBS and enables the slow release of it^34, were implanted into the pocket. On day 7 after surgery, eyes were photographed and cornea neovascularization was examined in a single blind manner. The angiogenic activity was evaluated on the basis of the number and growth rate of newly formed capillaries. An angiogenic score was calculated (vessel density×distance from limbus)^32. A density value of 1 corresponded to 0-25 vessels per cornea, 2 from […], 3 from 50-75, 4 from 75-100 and 5 for >100 vessels."}, "[5]": {"system": "endothelial cells", "experiment": "Cell-wounding assay (unpublished data)", "format": "cell-based"}, "[6]": {"system": "ERK (Thr 202/Tyr 204)", "experiment": "Western blot, ERK phosphorylation in cultured cardiac myocytes", "format": "cell-based, rat"}, "[7]": {"system": "AMPK (Thr 172 of the α subunit)", "experiment": "Western blot, AMPK phosphorylation in cultured cardiac myocytes", "format": "cell-based, rat", "details": "adiponectin 30 μg/ml, time course"}, "[8]": {"system": "Akt (Ser 473)", "experiment": "Western blot, Akt phosphorylation in HUVECs", "format": "cell-based, human", "details": "adiponectin 30 μg/ml, time course", "procedure": "(§1) Human umbilical vein endothelium cells (HUVECs) were cultured in endothelial cell growth medium-2 (EGM-2, San Diego, Calif.). Before each experiment, cells were placed in endothelial cell basal medium-2 (EBM-2, San Diego, Calif.) with 0.5% fetal bovine serum (FBS) for 16 h for serum-starvation. Experiments were performed by the addition of the indicated amount of mouse recombinant adiponectin, VEGF or vehicle for the indicated lengths of time. In some experiments, HUVECs were infected with adenoviral constructs encoding dominant-negative AMPKα2^28, dominant-negative AKT1^19 or green fluorescence protein (GFP) at a multiplicity of infection (MOI) of 50 for 24 h. In some experiments, HUVECs were pretreated with LY294002 (10 μM) or vehicle for 1 h before stimulation with adiponectin. Cell lysates were resolved by SDS-PAGE. The membranes were immunoblotted with the indicated antibodies at a 1:1000 dilution followed by the secondary antibody conjugated with horseradish peroxidase (HRP) at a 1:5000 dilution. ECL-PLUS Western Blotting Detection kit (Amersham Pharmacia Biotech, Piscataway, N.J.) was used for detection."}, "[9]": {"system": "ERK (Thr 202/Tyr 204)", "experiment": "Western blot, ERK phosphorylation in HUVECs", "format": "cell-based, human", "details": "adiponectin 30 μg/ml, time course", "experimental": "Human umbilical vein endothelium cells (HUVECs) were cultured in endothelial cell growth medium-2 (EGM-2, San Diego, Calif.). Before each experiment, cells were placed in endothelial cell basal medium-2 (EBM-2, San Diego, Calif.) with 0.5% fetal bovine serum (FBS) for 16 h for serum-starvation. Experiments were performed by the addition of the indicated amount of mouse recombinant adiponectin, VEGF or vehicle for the indicated lengths of time. In some experiments, HUVECs were infected with adenoviral constructs encoding dominant-negative AMPKα2^28, dominant-negative AKT1^19 or green fluorescence protein (GFP) at a multiplicity of infection (MOI) of 50 for 24 h. In some experiments, HUVECs were pretreated with LY294002 (10 μM) or vehicle for 1 h before stimulation with adiponectin. Cell lysates were resolved by SDS-PAGE. The membranes were immunoblotted with the indicated antibodies at a 1:1000 dilution followed by the secondary antibody conjugated with horseradish peroxidase (HRP) at a 1:5000 dilution."}, "[10]": {"system": "eNOS (Ser 1179)", "experiment": "Western blot, eNOS phosphorylation in HUVECs", "format": "cell-based, human", "details": "adiponectin 30 μg/ml", "procedure": "as §1"}, "[11]": {"system": "CD31-positive cells in Matrigel plugs", "experiment": "Mouse angiogenesis assay (Matrigel plug)", "format": "in vivo, C57BL mice", "details": "adiponectin 100 μg/ml in plug, subcutaneous, 14 days", "experimental": "The formation of new vessels in vivo was evaluated by Matrigel plug assay as described previously^28. For these experiments, 400 μl of Matrigel containing adiponectin (100 μg/ml) or vehicle was injected subcutaneously into the abdomen of C57BL mice. Mice were sacrificed 14 days after the injection. The Matrigel plugs with adjacent subcutaneous tissues were carefully recovered by en bloc resection, fixed in 4% paraformaldehyde, dehydrated with 30% sucrose, and embedded in OCT compound (GTI Microsystems, Tempe, Ariz.) in liquid nitrogen. Immunohistostaining for CD31 (PECAM-1: Becton Dickinson) were performed on adjacent frozen sections. Primary antibody was used at a 1:50 dilution followed by incubation of secondary antibody (HRP-conjugated anti-rat IgG at a 1:100 dilution). The AEC Substrate Pack (Biogenex, San Ramon, Calif.) was used for detection. CD31-positive capillaries were counted in 4 randomly chosen low-power (×100) microscopic fields."}, "[12]": {"system": "AMPK (Thr 172 of α subunit)", "experiment": "Western blot, AMPK phosphorylation in HUVECs", "format": "cell-based, human", "details": "adiponectin 30 μg/ml", "procedure": "as §1"}, "[13]": {"details": "adiponectin 30 μg/ml pretreatment, Pro 2 μM, NE 1 μM, 48 hours"}},
  "data": [
    {"molecule": "N#CC(=C(/N)Sc1ccccc1N)/C(C#N)=C(\\N)Sc1ccccc1N", "note": "[U0126, reference compound]", "values": [
      {"measurement": "reduction of αAR-induced hypertrophy", "setting": "[1]; p<0.01 vs. control", "value": "82.1±7.8", "unit": "%"}
    ]},
    {"molecule": "VEGF [reference compound]", "values": [
      {"measurement": "HUVEC migration", "setting": "[2]", "value": "a trend toward greater migration with VEGF compared to adiponectin, but this was not statistically significant"},
      {"measurement": "formation of capillary-like tubes (tube length)", "setting": "[3]", "value": "a trend toward increased tube length in the VEGF-treated cultures relative to adiponectin, but this was not statistically significant"}
    ]},
    {"molecule": "adiponectin: Recombinant histidine-tagged mouse adiponectin (amino acids 15-247) expressed in bacteria; adipocyte specific cytokine (protein, UniProt Q15848 19-244, looked up) Adiponectin: ETTTQGPGVLLPLPKGACTGWMAGIPGHPGHNGAPGRDGRDGTPGEKGEKGDPGLIGPKGDIGETGVPGAEGPRGFPGIQGRKGEPGEGAYVYRSAFSVGLETYVTIPNMPIRFTKIFYNQQNHYDGSTGKFHCNIPGLYYFAYHITVYMKDVKVSLFKKDKAMLFTYDQYQENNVDQASGSVLLHLEVGDQVWLQVYGEGERNGLYADNDNDSTFTGFLLYHDTN", "values": [
      {"measurement": "stimulatory effect on corneal neovascularization relative to VEGF", "setting": "[4]; adiponectin 1 μg and 10 μg vs VEGF 100 ng", "value": "comparable with that of VEGF"},
      {"measurement": "neovascularization in corneal implants", "setting": "[4]; pellets with adiponectin 1 μg and 10 μg", "value": "markedly accelerated compared with controls"},
      {"measurement": "endothelial migration in cell-wounding assay", "setting": "[5]", "value": "induced the endothelial migration"},
      {"measurement": "HUVEC migration", "setting": "[2]", "value": "significantly stimulated HUVEC migration"},
      {"measurement": "αAR-stimulated ERK phosphorylation", "setting": "[6]; adiponectin 30 μg/ml pretreatment, Pro 2 μM, NE 1 μM", "value": "suppressed"},
      {"measurement": "AngII-stimulated ERK phosphorylation", "setting": "[6]; data not shown", "value": "suppressed AngII-stimulated ERK phosphorylation"},
      {"measurement": "ERK phosphorylation, agent alone", "setting": "[6]; without αAR stimulation", "value": "no effect on ERK phosphorylation"},
      {"measurement": "phosphorylation of AMPK", "setting": "[7]", "value": "stimulated the phosphorylation of AMPK in cultured cardiac myocytes in a time-dependent manner"},
      {"measurement": "αAR-stimulated increase in protein synthesis ([3H] leucine incorporation)", "setting": "[1]; [13]", "value": "prevented"},
      {"measurement": "αAR-stimulated re-organization of sarcomeric actin", "setting": "[1]; [13]", "value": "prevented"},
      {"measurement": "AngII-stimulated myocyte hypertrophy", "setting": "[1]; data not shown", "value": "suppressed"},
      {"measurement": "αAR-stimulated increase in myocyte size", "setting": "[1]; pretreatment, then Pro 2 μM and NE 1 μM for 48 hours", "value": "prevented"},
      {"measurement": "actin organization, agent alone", "setting": "[1]; without αAR stimulation", "value": "no effect"},
      {"measurement": "myocyte size, agent alone", "setting": "[1]; without αAR stimulation", "value": "no effect"},
      {"measurement": "protein synthesis, agent alone", "setting": "[1]; without αAR stimulation", "value": "no effect"},
      {"measurement": "Akt phosphorylation", "setting": "[8]", "value": "time-dependent increase in Akt phosphorylation"},
      {"measurement": "phosphorylation of ERK", "setting": "[9]", "value": "no effect on the phosphorylation of ERK"},
      {"measurement": "eNOS protein levels", "setting": "[10]", "value": "no effect on eNOS protein levels"},
      {"measurement": "eNOS phosphorylation at Ser 1179", "setting": "[10]; time course", "value": "time-dependent increase in eNOS phosphorylation"},
      {"measurement": "density of CD31-positive cells in Matrigel plugs", "setting": "[11]", "value": "significantly higher density of CD31-positive cells compared with controls"},
      {"measurement": "formation of capillary-like tubes (tube length)", "setting": "[3]", "value": "promoted the formation of capillary-like tubes in a manner similar to VEGF"},
      {"measurement": "time of maximal AMPK phosphorylation", "setting": "[12]", "value": 15, "unit": "min"},
      {"measurement": "phosphorylation of AMPK", "setting": "[12]; time course", "value": "enhanced the phosphorylation of AMPK in a time-dependent manner"}
    ]}
  ]
}
